Binding signal (% of alleles in ChIP) data for two substances are collected here from patent US20150307867.

One series has as its target TAL1 (Homo sapiens) (UniProt P17542). Conditions: ChIP-pyrosequencing, heterozygous primary human erythroblasts; input alleles balanced; about 60:40 G:T.
A further series concerns the target GATA1 (Homo sapiens) (UniProt P15976). Conditions: ChIP-pyrosequencing, heterozygous primary human erythroblasts; input alleles balanced; about 60:40 G:T.

Sequence of TAL1 (Homo sapiens) (P17542 whole entry): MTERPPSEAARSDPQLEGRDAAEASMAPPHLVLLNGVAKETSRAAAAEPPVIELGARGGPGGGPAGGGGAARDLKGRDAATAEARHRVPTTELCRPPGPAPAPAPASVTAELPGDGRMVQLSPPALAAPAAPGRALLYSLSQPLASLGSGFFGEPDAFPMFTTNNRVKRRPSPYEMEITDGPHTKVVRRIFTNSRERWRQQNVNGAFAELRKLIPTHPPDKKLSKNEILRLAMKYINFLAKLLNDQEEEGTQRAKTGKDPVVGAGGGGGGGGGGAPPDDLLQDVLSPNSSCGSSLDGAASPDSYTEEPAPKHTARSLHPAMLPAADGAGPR
Sequence of GATA1 (Homo sapiens) (P15976 whole entry): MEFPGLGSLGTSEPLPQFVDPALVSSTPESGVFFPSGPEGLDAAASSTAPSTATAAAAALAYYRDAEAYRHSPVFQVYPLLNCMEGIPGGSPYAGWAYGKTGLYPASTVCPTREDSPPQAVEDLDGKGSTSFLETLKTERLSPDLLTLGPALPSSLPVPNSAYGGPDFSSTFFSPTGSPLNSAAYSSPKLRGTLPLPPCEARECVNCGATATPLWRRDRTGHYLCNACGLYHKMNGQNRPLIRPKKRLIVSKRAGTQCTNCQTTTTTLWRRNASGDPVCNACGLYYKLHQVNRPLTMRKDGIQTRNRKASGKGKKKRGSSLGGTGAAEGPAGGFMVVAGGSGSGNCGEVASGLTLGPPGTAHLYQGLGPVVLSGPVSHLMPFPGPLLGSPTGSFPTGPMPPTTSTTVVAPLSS

On to “CTGNNNNNNNNNGATA (double strand) [BCL11A DHS +62 rs1427407 G-allele (half-E-box/GATA motif)]”, for which the binding signal (% of alleles in ChIP) with TAL1 (Homo sapiens) and with GATA1 (Homo sapiens) was 60 throughout.

With BCL11A DHS +62 rs1427407 T-allele, the binding signal (% of alleles in ChIP) in the series with TAL1 (Homo sapiens) and with GATA1 (Homo sapiens) was 40 in each case.
